Assay results reported in the supplement of paper PMC10567573.

B1: CPXM2 (parent)
chain: TASTKNCMVGYDMGATRCDFTLSK

Variants of: B1
Assay: protein stability index of a GFP-peptide fusion (GPS, HEK-293T) (PSI 1-6); higher = more stable
Settings: c terminus: a fixed tail appended
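Also: lentivirally expressed fusions sorted by FACS into six bins by GFP to DsRed ratio, PSI derived from sequencing read proportions per bin multiplied by bin number.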

Protein stability index of substitutions, site by site:
F20: C 2.52; K 3.67; V 2.81; S 2.99; I 2.69; W 2.28; Y 2.13; M 2.78; N 2.98; R 3.63; G 3.5; T 3.88; H 3.5; E 4.26; P 4.12; L 2.42; Q 3.05; A 2.51; D 3.85
K5: V 2.42; N 2.28; S 2.63; L 2.29; F 2.25; P 3.18; I 2.04; A 2.3; T 2.35; G 2.46; W 1.97; Y 1.72; D 3.25; H 2.4; M 2.38; Q 2.4; E 3.21; R 1.59; C 1.74
V9: E 3.33; G 3.52; Y 2; F 1.63; M 2.42; C 2.31; K 2.12; A 2.62; T 3.22; I 2.49; L 2.05; P 2.89; W 2.09; H 2.3; D 3.58; N 2.81; Q 3.5; S 2.36; R 2.18
C18: M 2.59; T 2.66; S 2.27; L 2.4; W 3.08; K 3.57; N 2.43; Q 1.75; G 1.87; V 2.19; P 3.2; A 2.04; R 2.68; Y 2.46; E 3.53; H 2.8; D 2.98; I 2.84; F 2.42
N6: L 1.83; R 2.04; M 2.34; W 2.34; K 1.87; T 3.1; G 2.38; E 3.22; F 2.12; Y 1.68; C 1.62; P 3.12; V 2.16; Q 2.72; H 2.04; S 2.66; I 1.89; A 2.69; D 3.5
M8: S 2.48; Q 2.62; C 1.77; E 4.05; Y 2.22; H 2.76; N 3.95; P 2.06; G 2.08; A 1.88; W 2.15; D 4.13; I 1.62; L 2.14; K 3.26; V 2.03; R 1.35; F 2.73; T 2.42
G14: E 2.97; I 2.31; P 2.84; V 1.75; K 2.76; C 1.99; Q 2.44; R 2.88; T 2.76; H 3; D 3.63; L 2.31; F 1.93; M 2.17; A 2.89; S 2.5; Y 1.59; N 3.17; W 2.15
G10: T 1.93; V 2.72; D 2.37; L 2.38; Q 1.73; I 1.67; C 2.2; S 2.75; A 1.97; R 1.84; H 1.74; K 2.42; F 1.58; P 1.76; M 1.96; Y 3.56; W 1.64; N 1.86; E 2.69
D19: C 1.91; V 1.78; P 2.77; W 2.24; K 2.67; L 2.54; F 1.75; N 3.07; G 1.94; R 2.9; Q 1.84; T 2.36; E 2.18; S 2.08; I 1.94; Y 2.36; A 2.9; M 1.82; H 2.59
C7: H 3.48; R 3.26; F 3.21; G 3.75; V 3.46; N 3.84; D 4; Q 3.69; A 3.74; L 3.27; M 3.06; P 3.48; Y 2.71; T 3.24; I 3.11; S 3.77; K 3.18; E 4.44; W 2.99
T16: A 2.7; R 3.06; I 1.6; L 2.45; F 1.75; C 2.26; G 2.27; M 2.28; Q 2.86; K 2.74; V 2.66; W 2.39; E 2.97; N 2.75; P 2.62; D 3.72; H 2.47; S 2.81; Y 2.17
A15: W 2.71; T 2.37; G 2.61; E 2.75; H 2.89; L 2.71; V 3.16; M 2.07; R 1.89; P 2.33; C 1.8; N 2.62; D 2.78; K 2.84; F 2.51; S 1.68; Y 2.19; I 2.58; Q 2.77
M13: H 2.64; E 3.92; R 2.5; L 2.58; D 3.76; T 2.99; S 2.81; A 2.74; V 3.02; I 2.11; Q 3.19; K 1.91; P 2.31; F 2.01; N 3.21; Y 2.54; G 2.99; C 2.08; W 2.02
D12: G 1.89; Y 1.69; F 1.62; A 2.37; T 1.98; C 1.88; N 2.02; E 2.02; P 2.15; V 2.44; M 1.46; K 2.47; S 2.72; H 2.14; R 2.58; L 1.21; W 1.98; I 1.58; Q 2.14
T4: I 2.25; D 3.17; Y 2; M 2.58; P 2.47; A 2.23; E 2.12; K 2.01; N 2.4; W 1.82; R 1.91; L 1.85; S 1.93; F 1.92; H 2; C 2.65; Q 2.25
R17: L 3.53; M 3.07; E 3.79; Q 3.67; A 3.87; D 3.96; S 3.31; T 3.38; G 3.72; I 3.2; Y 2.63; W 2.13; V 3.7; F 2.81; H 2.72; K 3.28; C 3.49; P 3.57; N 3.32
S3: Y 1.88; M 2.1; K 1.99; H 1.97; P 2.57; R 1.28; N 2.37; V 3.26; W 2.09; T 2.4; L 2.16; Q 1.91; I 1.67
Y11: V 2.33; C 2.07; Q 3; H 3.32; S 2.28; K 2.96; P 2.31; G 3.49; A 2.92; N 2.6; D 3.33; E 3.49; M 2.49; R 2.59; F 1.38; I 2.06; L 2.41; W 2.23; T 2.85
